Reference: a protein production outcome set (Wang et al. 2014)

Assay: label from the status in PepcDB records
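Further: failed if final PepcDB status was selected cloned or expressed and not failed if soluble or beyond.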

| Sequence | protein production |
| --- | --- |
| MGCLYSKGNVHFSIDDEIYDIKETRKQQQKEKEKEEEEKKLRPSSTPKVEHTWPSKLELSLQHLSQKTQNARKIQAWWRGTLVRRSLLRAALSAWIIQSWWRKILAKRQEKNRLIILHLMAQETRACVLIQSWVRMLKIRQNYCRLCYATRVIQASWRWYNCRTRGFFQGSYELVGNKLRLRLDIFLGSQVCRISDCISLPIKN | failed |
| MENLKNIQPREDFNWEEFEAGGVHAAVSRQEQEAAYDKTLNTIKEKEVVMGRVTAINKREVVINVGYKSEGVVPATEFRYNPELKVGDEVEVYIENQEDKKGQLVLSHRKARAARSWERVNEALEKDEIVKGYVKCRTKGGMIVDVFGIEAFLPGSQIDVRPIRDYDAFVEKTMEFKIVKINQEYKNVVVSHKVLIEAELEQQKKEIIGKLEKGQVLEGIVKNITSYGVFIDLGGVDGLIHITDLSWGRVAHPEEIVQLDQKINVVILDFDEDRKRIALGLKQLMPHPWDALDSELKVGDKVKGKVVVMADYGAFVEIAQGVEGLIHVSEMSWTQHLRSAQDFLHVGDEVEAVILTLDREERKMSLGLKQLKPDPWADIETRFPVGSRHHARVRNFTNFGVFVEIEEGVDGLIHISDLSWTKKIKHPSEFTEVGADIEVQVIEIDKENRRLSLGHKQLEENPWDVFETVFTVGSIHEGTVIEVMDKGAVVSLPYGVEGFATPKHMVKEDGSQAVLEEKLPFKVIEFNKDAKRIIVSHSRVFEDEQKMAQREANAERKAEAKAAQKEAAAEAANPAQAVEKATLGDLGELAALKEKLSEN | failed |
| MTLAVTAQPALAADRGHSVPLRIATYNIHAGAGSDGVFDLDRQAAALRALDADVIGLQEVDVHWGARSQGLDVAGELARRLGMRVSFAPIYSLDPVTAGEPRREYGVAVLSRFPVRSATNHEITRLSTQDENPLPAPAPGFGEVTLKVRGVPVQVFVTHLDYRADPAVRRAQVADTRRIMARERAELPGAHQFLLGDFNAEPAAPELAPLWKELSDAGAGTPATYPAQAPVKRIDYVTAGKDVRIRRTAVPEEPAASDHRPVVADVSLPRRTPGRD | failed |
| MDFESNGAMMEYCKSTGRTYCAFSIQQSSKLLGTVVLELFTDIAPATCANFIKYIKDGYQGTPLHRIVPNGWVQGGDIVDGSGKGDPGFVLPDETYSVKHDAPGVLGMATGGQPHTANTQFYISLSPLPFLDGKRVAFGRVLNKQSLENLLALQTLPTFQNERPVPDVVIASCHVIYNPNS | failed |
| MAVRGVSLRQPYPREPRGWHQEWSLRRAMRMARAAYWESYSATATDFWMSAEFTSLYDADTPDDSVPLAPARDHDLTDSHAILQAHYAACWTEGRPFAVETKLIKPDGRLLDCVVHGEPEFDANGQVQRVFGIVRDATPETSALRQLAVSEQRLADFVSTASDWCWESGPDHRLLPYPKSLDGNAALQTVASGGKARWELAYAPDEEGSMALHRDDMEAHRPFRDFIYTSIGNDGSRIIISTSGKPIFADDGTFLGYRGTASDITQLAAARTLLDQRTGALEEAHRLGRIGTWTHRLDTGRTVWSPELYQLLGLEPDAFEPTYEGTEPYFLDDDAARLLKIQKRVLRTSTTEATDIRILHTDGTPRDLAIICKAEISNGNVIGLIGTAQDVTDRKEAERRLEQLAYTDPLTGLANRALYKRKLADLFENPMAEHGQNALYLIDLDRFKEVNDSLGHSTGDSLLIHVAGVLRQELGPQAFIARIGGDEFAVLTNSPNTSVEATTALADRLIAKLSVPVELAEGEACIGATIGIAILPEHGATAEKASRNADLALYMAKEAGRGRAQLFEPMYAEAVDQKLDLGRRLRHAVDSGGLNTHYQPQIDLKTGRVIGFEALLRWSHPERGPISPAEFIPIAETTGLIVDLGHWVLRDACKQMRGWLDAGLPARTISVNVSPAQIWNGDFEKVVATVLADTGLPPELLCLELTENLFVDHTKQKVSTTLAALSKLGIQLALDDFGSGYSSLGYLTRLPFNRLKIDRSFVDGIATVPEKRKLLGGIIALSHGLGMSVVAEGAELQAEVDLLAAFDCDFVQGYAFSKPVAADQAAVVAAEIERKPGR | failed |
| APLYIKVHEIDNTAIIVNDGGLPKGTVFSCGLVLEEDVPQGHKVALTDLNQGDEIVRYGEVIGFADETIKRGSWIREALVRMPAP | not failed |
| DGIVELKTVPFDQLVVYEQKLFPAERERFLRLWIKQPNSAAYAVVRDGQIVGYGVIRQSHTGLRIGPLNADNEQIAEQLLLALLAFRSDALVFLDVPDANLEAIKLVQRYGMKPVSEVARMYNKEIPNLLINRVFAVTSLEVG | failed |
| MKILLIGGSGNIGRAIAAELSGRHEIIAAGRHHGDVRVDIEDEQSIAAMYRQLPRLDAVAVATGGRNGHVGPLAEMNAERYRVGLDAKLMGQVNLVLRGLDKVADGGSFTLVGGAWQPQAIVPLLSNVYMANAALEGFVNAAAVELPRRLRINLVSPLLLAESEAEYGPLFRGVPLVEARQVARAYSLSIEGAQTGQTYRLGRLDLEHHHHHH | not failed |
| MNDTLTLDEVVEFAENPEPRCPCVLLLDTSGSMQGAAIEALNQGLLSLKDELMKNSIAARRVEIAIVTFDSHINVIQDFVTADQFNPPILTAQGLTSMGAGIHKALDMVQERKSLYRANGVAYYRPWVFMITDGEPQGELDHLVEQAALRLQGDEVNKRVAFFSVGVENANMTRLNQIAVRTPLKLKGLNFIEMFVWLSASMSAVSHSQIDEQVALPPIGWGSI | failed |
| MNQFGPSALINLSNFSSIKPEPASTPPQGSMANSTAVVKIPGTPGAGGRLSPENNQVLTKKKLQDLVREVDPNEQLDEDVEEMLLQIADDFIESVVTAACQLARHRKSSTLEVKDVQLHLERQWNMWIPGFGSEEIRPYKKACTTEAHKQRMALIRKTTKK | failed |
| GSHFYFLSKRRRNLLRNPCGEEDLEGWSDVEHGGDGWKVEELPGDNGVEFTQDDSVKKYFASSFEWCRKAQVIDLQAEGYWEELLDTTQPAIVVKDWYSGRTDAGSLYELTVRLLSENEDVLAEFATGQVAVPEDGSWMEISHTFIDYGPGVRFVRFEHGGQDSVYWKGWFGARVTNSSVWVEP | not failed |
| MHIAIIGAAGMVGRKLTQRLVKDGSLGGKPVEKFTLIDVFQPEAPAGFSGAVDARAADLSAPGEAEKLVEARPDVIFHLAAIVSGEAELDFDKGYRINLDGTRYLFDAIRIANGKDGYKPRVVFTSSIAVFGAPLPYPIPDEFHTTPLTSYGTQKAICELLLSDYSRRGFFDGIGIRLPTICIRPGKPNAAASGFFSNILREPLVGQEAVLPVPESIRHWHASPRSAVGFLIHGAMIDVEKVGPRRNLSMPGLSATVGEQIEALRKVAGEKAVALIRREPNEMIMRMCEGWAPGFEAKRARELGFTAESSFEEIIQVHIEDELGGSLK | not failed |
| MIYPDETMLYAPVEWHDCSEGYTDIRYEKSTDGIAKITINRPQVRNAFRPLTVKEMIQALADARYDDNVGVIILTGEGDKAFCAGGDQKVRGDYGGYQDDSGVHHLNVLDFQRQIRTCPKPVVAMVAGYSIGGGHVLHMMCDLTIAAENAIFGQTGPKVGSFDGGWGASYMARIVGQKKAREIWFLCRQYDAQQALDMGLVNTVVPLADLEKETVRWCREMLQNSPMALRCLKAALNADCDGQAGLQELAGNATMLFYMTEEGQEGRNAFNQKRQPDFSKFKRNP | not failed |
| DVREFQPENFARFHPGGSLGRRLLSKVQDEMFSDNIPSVASDADFTSIIHKISSSHLGLTLVNLKDDSLAIITDGDLRRAMESKGRDAFDLVAKDIASINPASISPESNIQKAYEIMESKGITSLIVVESNSVVGIL | failed |
| MRETFADDLRSLHNKLIEMGRLTEVALQQAIEAFQTQNKNLAMAVIDGDGSIDKLEEEVNDFALWLIAKQQPVATDLRRIVAAIKIASDIERIADFAVNIAKACIRIGGQPFVMDIGPLVLMYRLATDMVSTAIAAYDREDASLAAQIADMDHRVDEQYGEMMKSLLEVEKTDKETLAQMNVLALVARYIERTADHATNIAEHLVYLVKGKHYDFND | not failed |
| MEGNCSQGRFDSQVSSMRDLRPNAINQNQKQHHPNSRQDSGFNNTMDTRHNNVDRGKKSMSEDDELCLLSSDGQNKSKENSPWQRVKWMDKMVKLMITALSYIGEDSGSDKKFAVLQKKGKWRSVSKVMDERGYHVSPQQCEDKFNDLNKRYKKLNEMLGRGTSCEVVENPSLLDKIDYLNEKEKDEVRRIMSSKHLFYEEMCSYHNGNRLHLPHDPAVQRSLHLITLGSRDDHDNDEHGKHQNEDLDDDDDYEEDHDGALSDRPLKRLRQSQSHEDVGHPNKGYDVPCLPRSQADVNRGISLDSRKAAGLQRQQIESKSLELEGRKLQIQAEMMELERQQFKWEVFSKRREQKLAKMRMENERMKLENERMSLELKRIELGAKL | failed |
| MGNFHATTIFAVHHNGECAMAGDGQVTMGNAVVMKHTARKVRKLFQGKVLAGFAGSVADAFTLFEMFEGKLEEYNGNLQRAAVEMAKQWRGDKMLRQLEAMLIVMDKTTMLLVSGTGEVIEPDDGILAIGSGGNYALSAGRALKQYASEHLTAKQIAKASLEIAGDICVYTNHNIIVEEL | not failed |
| MILKTKLFGKVYQFTSVKEVLAKANEEKSGDKLAGVAANSAEERVAAKVVLSELSLNDLFNNPVVDYDEDEVTRIIIDQVNMRIFESIKHWTVAELREFILSSETTDFDIKRISRGLTSEMIAAVCKLMSNMDLIVGAKKINIEKTANTTIGRPGTFSNRLQPNHPTDNVDGIMASVMEGLSYGAGDALIGLNPVDDSTESVKRILNKFEEFRSEWEIPTQTCVLAHVTTQMEAMRQGAPTGLVFQSIAGSEKGNTAFGLNAEILAEAQDLALHSGQAAGPNVMYFETGQGSELSSEANFGADQVTMEARCYGLAKKFDPYIVNTVVGFIGPEYLYDSKQVIRAGLEDHFMGKLTGISMGCDVCYTNHMKADQNDMENLAMLLATAGCTYIMGIPHGDDVMLNYQTTGFHETATIRETLGLRPIKEFEEWMEKMGLMENGKLTSRAGDASVFIK | not failed |
| MSLDVLTNFAQIQSFTALAIGIMIGLAALGAGLGLAIMAGKFLESAARQPELIPLLQVRMFIAAGLIDAAFIISVAVGLLLAFANPLSSTLLVAVSKALAG | failed |
| RIPDIEEVELAEAPADKVLPDGFYVTTNHPTFVRYGGEWLPVEDISMDRVIVIRDGRAYCIPIDEVVRGDRVVVGEKGVRVVPPERPRKSTVFEFMGGRVSSERPTERMIEAIAREIYELKLKGGKIAVVAGPAVDHTSARNALAALIRDGYVDLLLSGNALAVHDIEISIFGTSLGMDICKGRPVPGGNRHHLYTISKVIAAGGIKKAIEKGIIKDGIMYECVKNNVPFILAGSIRDDGPLPEVITDVMVAKKKMKEALRGINMVIMLATMLHSIAVGNLLPSYVKTICVDMNPSTVTKLMDRGTHQAIGVVTDVGLFLPLLYLKIKE | failed |
| MLTGIGAIVFDLDGTLYQSESLGGQIAACADRYLADLLSVSPEEAGEIVRRVRRELTARFGREASLSDACRELGGDLRELHRRFAAEVAPEPHLRRDSRVVQLLRTLGANRELYLYTNNNRALSGRIMDAIGVTGLFRRVVTIEDSWRPKPDLQALEALFAALGRKPSECLFVGDRYDIDLRLPAELGCSVYLSRTVDELLGLTLPLSEEQQ | failed |
| WVSNIDPAETFRHTELHVVKSVYDGLLTQNSNGGIEPALAHEWKMEENVMTLWLRPGIFRHDGELLSIDDVVWSLERLKQIKGPVYELWQCIETVTAETPNCLKIVLKRANQFFPYMLATPHASILCRDTASFGSGYSYHIGTGPFRISSWN | failed |
| MAKPPTTIEVSPTITLPQQDPSLMGVTVSINGADQRTDQALAKVTRDNQIVTLTASRDLRFLLQEVLEKQMTARGYMVGPNGPVNLQIIVSQLYADVSQGNVRYNIATKADIAIIATAQNGNKMTKNYRASYNVEGAFQASNKNIADAVNSVLTDTIADMSQDTSIHEFIKQNARLEHHHHHH | not failed |
